Results published in publication doi:10.1101/2022.02.07.479474.

Experiments:
Assay in all cases: NMR
[1] = molecular target: PBRM1 BD4 KRK (UniProt Q86U86 496-637, K511A;R512A;K513A)
[2] = molecular target: PBRM1 BD2 SKY (UniProt Q86U86 178-291, S275A;K277A;Y281A)
[3] = molecular target: PBRM1 BD4 (UniProt Q86U86 496-637)
[4] = molecular target: PBRM1 BD2 (UniProt Q86U86 178-291)
PBRM1 BD2, sequence (Q86U86 178-291): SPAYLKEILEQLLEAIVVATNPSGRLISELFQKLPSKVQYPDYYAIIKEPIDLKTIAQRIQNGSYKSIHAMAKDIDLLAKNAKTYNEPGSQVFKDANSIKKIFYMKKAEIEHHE

PBRM1 BD4, sequence (Q86U86 496-637): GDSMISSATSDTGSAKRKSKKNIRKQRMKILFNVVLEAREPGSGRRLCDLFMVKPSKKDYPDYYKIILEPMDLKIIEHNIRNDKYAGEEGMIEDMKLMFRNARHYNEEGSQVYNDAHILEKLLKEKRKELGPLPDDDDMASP
PBRM1 BD2 SKY, sequence (Q86U86 178-291 S275A/K277A/Y281A): as the sequence (Q86U86 178-291) above, with S98A, K100A, Y104A counted along it
PBRM1 BD4 KRK, sequence (Q86U86 496-637 K511A/R512A/K513A): as the sequence (Q86U86 496-637) above, with K16A, R17A, K18A counted along it

GCGUAGACAGCUGUUCGCAGCUGUCUAUGC (structured_RNA) [dsRNAI]
Kd [1]: 1020 ± 40 µM | Kd [2]: 200 ± 70 µM | Kd [3]: 120 ± 20 µM | Kd [4]: 25 ± 8 µM
